T1: Boi1 SH3 (BOI1_YEAST), P38041
T1 chain: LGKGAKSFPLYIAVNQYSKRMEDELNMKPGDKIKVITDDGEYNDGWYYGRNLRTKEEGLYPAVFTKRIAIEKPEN

T2: Boi2 SH3 (BOI2_YEAST), P39969
T2 chain: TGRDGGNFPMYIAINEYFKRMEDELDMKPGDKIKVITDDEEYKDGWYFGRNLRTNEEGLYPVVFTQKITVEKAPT

T3: Myo5 SH3 (MYO5_YEAST), Q04439
T3 chain: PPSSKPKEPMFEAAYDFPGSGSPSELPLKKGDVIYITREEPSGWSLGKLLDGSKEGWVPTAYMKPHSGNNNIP

T4: Rvs167 SH3 (RV167_YEAST), P39743
T4 chain: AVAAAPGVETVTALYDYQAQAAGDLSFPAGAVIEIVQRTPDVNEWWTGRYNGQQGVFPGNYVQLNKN

T5: Yfr024 SH3 (LSB3_YEAST), P43603
T5 chain: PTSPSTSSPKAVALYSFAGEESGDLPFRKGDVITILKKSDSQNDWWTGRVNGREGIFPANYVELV

T6: Yhr016c SH3 (YSC84_YEAST), P32793
T6 chain: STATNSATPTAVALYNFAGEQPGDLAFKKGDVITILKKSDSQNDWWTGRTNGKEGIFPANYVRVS

B1: YHR165C 347-360 (peptide)
chain: PGGPKFEPLYPREE
B2: YNL106C 1153-1166 (peptide)
chain: PSKKKSKPKVPAKN
B3: YLL021W 1081-1094 (peptide)
chain: PELAKNSPLAPIKK
B4: YKR093W 410-423 (peptide)
chain: PFIRRYTPLKPITK
B5: YJR035W 269-282 (peptide)
chain: PEWRRPHPNIPDAK
B6: YPL055C 201-214 (peptide)
chain: NYHHRETPPPPPSN
B7: YDR195W 471-484 (peptide)
chain: PDLNKRPPREPIEF
B8: YBR056W 255-268 (peptide)
chain: NTVEKLQPGLPVII
B9: YMR067C 383-396 (peptide)
chain: NTINKSNPQGPSDN
B10: YPR029C 360-373 (peptide)
chain: NTLLKVVPQEPTAV
B11: YMR156C 9-22 (peptide)
chain: PFLIKFTPKFPQSI
B12: YGR123C 104-117 (peptide)
chain: NVLLKAKPNDPAAT
B13: YOR231W 8-21 (peptide)
chain: PESAKSNPNSPRLK
B14: YPL137C 1165-1178 (peptide)
chain: PANPKILPKIPSGA

Target: T1, Boi1 SH3 (BOI1_YEAST), P38041
Assay: SPOT array

Binder | normalised SPOT signal, Boehringer light units (BLU); mean over the file's lines of this peptide
B1 | 0
B2 | 383
B3 | 685
B4 | 529
B5 | 1280
B6 | 58.5
B7 | 114
B8 | 41
B9 | 310
B10 | 1110
B11 | 65
B12 | 1780
B13 | 618
B14 | 158

Target: T2, Boi2 SH3 (BOI2_YEAST), P39969
Assay: SPOT array

Binder | normalised SPOT signal, Boehringer light units (BLU); mean over the file's lines of this peptide
B1 | 16.6
B2 | 32.8
B3 | 0
B4 | 67.8
B5 | 40.3
B6 | 59.3
B7 | 10.6
B8 | 33.2
B9 | 30.9
B10 | 62.6
B11 | 0
B12 | 29.5
B13 | 0
B14 | 0.9

Target: T3, Myo5 SH3 (MYO5_YEAST), Q04439
Assay: SPOT array

Binder | normalised SPOT signal, Boehringer light units (BLU); mean over the file's lines of this peptide
B1 | 90
B2 | 580
B3 | 125
B4 | 649
B5 | 183
B6 | 318
B7 | 192
B8 | 280
B9 | 76.2
B10 | 154
B11 | 974
B12 | 156
B13 | 253
B14 | 164

Target: T4, Rvs167 SH3 (RV167_YEAST), P39743
Assay: SPOT array

Binder | normalised SPOT signal, Boehringer light units (BLU); mean over the file's lines of this peptide
B1 | 176
B2 | 36.2
B3 | 31.5
B4 | 585
B5 | 94.1
B6 | 129
B7 | 27.8
B8 | 16.6
B9 | 93.5
B10 | 62.5
B11 | 147
B12 | 121
B13 | 80.9
B14 | 34.3

Target: Sho1 SH3 (SHO1_YEAST), P40073
Sequence (P40073 295-366): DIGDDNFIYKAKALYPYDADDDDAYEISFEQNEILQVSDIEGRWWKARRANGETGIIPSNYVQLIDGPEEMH
Assay: SPOT array

Binder | normalised SPOT signal, Boehringer light units (BLU); mean over the file's lines of this peptide
B1 | 40.6
B2 | 483
B3 | 54.8
B4 | 59
B5 | 9.9
B6 | 70
B7 | 69.6
B8 | 2.8
B9 | 57.6
B10 | 75.6
B11 | 97.2
B12 | 126
B13 | 69.5
B14 | 16400

Target: T5, Yfr024 SH3 (LSB3_YEAST), P43603
Assay: SPOT array

Binder | normalised SPOT signal, Boehringer light units (BLU); mean over the file's lines of this peptide
B1 | 12.3
B2 | 565
B3 | 69.3
B4 | 624
B5 | 1150
B6 | 323
B7 | 268
B8 | 33.6
B9 | 163
B10 | 116
B11 | 116
B12 | 63.4
B13 | 89.7
B14 | 93.9

Target: T6, Yhr016c SH3 (YSC84_YEAST), P32793
Assay: SPOT array

Binder | normalised SPOT signal, Boehringer light units (BLU); mean over the file's lines of this peptide
B1 | 16.9
B2 | 62
B3 | 14.6
B4 | 91.6
B5 | 145
B6 | 178
B7 | 4.6
B8 | 12
B9 | 46.5
B10 | 311
B11 | 27.7
B12 | 310
B13 | 31.8
B14 | 5.1

Source: article PMC314469, “Protein Interaction Networks by Proteome Peptide Scanning” (PLoS Biology, 2004)
